Assay [1] deals with NF-κB p65, endogenous in the cells (activated by TNFα) (human) (UniProt Q04206).
Assay [2] has the same target. The source holds these as a separate data set.
Assay [3] addresses CIAS1-PYD (pyrin only CIAS1 construct) (Homo sapiens (Human)) (UniProt Q96P20).
For assay [4], the target named is Myc-ASC (Myc-tagged Apoptosis speck protein containing a CARD) (Homo sapiens (Human)) (UniProt Q9ULZ3).

On to “FLAG-POP2 (POP2 with an N-terminal Flag epitope in pcDNA 3.1)”, for which the TNFα-stimulated 3X-NF-κB-Luc reporter (luciferase) in assay [1] worked out at 3 fold.

The substance “GFP-POP2 (GFP fusion of pyrin-only protein 2)” showed a p65 localization pattern after TNFa treatment (immunofluorescence, cells scored) in assay [2] of 40%. Also, the percentage of ASC expressing cells containing specks (CIAS1-PYD co-expressed) in assay [3] and in assay [4] was 10% each time.

The values are drawn from patent US9163071B2.
